Key:
Test in all cases: cryo-EM structure
[1] = biological target: T1, Smc5 (Walker B mutant E1015Q) (S. cerevisiae, UniProt Q08204 1-1093, E1015Q, BS3-crosslinked within the holo-complex)
T1 sequence: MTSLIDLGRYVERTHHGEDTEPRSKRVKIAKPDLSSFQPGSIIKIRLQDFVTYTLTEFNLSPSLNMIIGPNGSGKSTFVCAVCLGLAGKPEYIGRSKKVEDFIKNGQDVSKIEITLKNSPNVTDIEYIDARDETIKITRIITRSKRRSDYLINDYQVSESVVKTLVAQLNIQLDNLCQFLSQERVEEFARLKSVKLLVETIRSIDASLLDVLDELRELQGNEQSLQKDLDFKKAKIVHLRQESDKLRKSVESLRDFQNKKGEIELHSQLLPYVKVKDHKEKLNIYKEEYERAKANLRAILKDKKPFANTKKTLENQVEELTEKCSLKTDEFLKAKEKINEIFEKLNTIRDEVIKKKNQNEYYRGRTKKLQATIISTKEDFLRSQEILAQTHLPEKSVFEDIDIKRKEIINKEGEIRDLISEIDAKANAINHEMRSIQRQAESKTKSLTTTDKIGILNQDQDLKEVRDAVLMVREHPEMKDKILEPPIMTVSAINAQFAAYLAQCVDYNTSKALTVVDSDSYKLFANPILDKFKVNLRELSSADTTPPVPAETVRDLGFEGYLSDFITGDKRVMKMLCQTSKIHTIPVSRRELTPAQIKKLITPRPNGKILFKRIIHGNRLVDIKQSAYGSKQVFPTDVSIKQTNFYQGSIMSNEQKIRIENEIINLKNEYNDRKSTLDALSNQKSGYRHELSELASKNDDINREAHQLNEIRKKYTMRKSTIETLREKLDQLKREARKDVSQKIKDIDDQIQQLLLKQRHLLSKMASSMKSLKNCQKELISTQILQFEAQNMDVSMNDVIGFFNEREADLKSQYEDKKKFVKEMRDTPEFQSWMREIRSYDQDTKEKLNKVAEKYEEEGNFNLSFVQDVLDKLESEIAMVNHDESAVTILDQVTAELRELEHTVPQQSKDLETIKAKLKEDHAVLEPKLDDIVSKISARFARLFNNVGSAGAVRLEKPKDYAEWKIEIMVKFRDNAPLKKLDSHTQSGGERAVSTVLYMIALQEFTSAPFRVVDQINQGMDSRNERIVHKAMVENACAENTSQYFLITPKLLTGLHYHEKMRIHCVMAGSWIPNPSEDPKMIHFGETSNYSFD

[2] = biological target: T2, Nse1 (S. cerevisiae, UniProt Q07913 1-336, BS3-crosslinked within the holo-complex)
T2 sequence: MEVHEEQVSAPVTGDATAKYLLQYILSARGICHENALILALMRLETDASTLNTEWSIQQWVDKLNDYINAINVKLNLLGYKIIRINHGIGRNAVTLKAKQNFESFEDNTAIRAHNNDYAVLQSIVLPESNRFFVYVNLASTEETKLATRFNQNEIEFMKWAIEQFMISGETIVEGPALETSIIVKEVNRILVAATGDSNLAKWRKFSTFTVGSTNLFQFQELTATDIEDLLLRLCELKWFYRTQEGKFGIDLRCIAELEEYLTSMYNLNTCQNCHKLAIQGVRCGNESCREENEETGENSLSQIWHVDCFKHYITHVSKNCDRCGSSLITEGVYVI

[3] = biological target: T3, Nse4 (HALO-tagged) (S. cerevisiae, UniProt P43124 1-402, BS3-crosslinked within the holo-complex)
T3 sequence: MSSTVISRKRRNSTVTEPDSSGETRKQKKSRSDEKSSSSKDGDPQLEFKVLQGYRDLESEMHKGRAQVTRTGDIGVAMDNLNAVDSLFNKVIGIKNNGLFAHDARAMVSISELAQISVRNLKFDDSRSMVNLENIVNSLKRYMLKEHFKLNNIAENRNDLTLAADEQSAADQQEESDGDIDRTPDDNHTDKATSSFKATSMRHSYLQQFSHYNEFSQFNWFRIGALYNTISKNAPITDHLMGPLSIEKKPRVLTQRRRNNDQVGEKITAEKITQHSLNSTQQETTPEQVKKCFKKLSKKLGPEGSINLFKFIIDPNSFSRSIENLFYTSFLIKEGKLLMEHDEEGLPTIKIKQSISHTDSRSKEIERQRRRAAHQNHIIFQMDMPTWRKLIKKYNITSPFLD

Measured: binding result

B1: Nse3 (natural protein, S. cerevisiae)
chain: MSSIDNDSDVDLTEDLAVAKIVKENPVARKMVRYILSRGESQNSIITRNKLQSVIHEAAREENIAKPSFSKMFMDINAILYNVYGFELQGLPSKNNMNAGGNGSNSNTNKSMPEPLGHRAQKFILLNNVPHSKNFDDFKILQSAHTYEELIVTGEYIGDDIASGTSNTLESKLSTDRDLVYKGVLSVILCIVFFSKNNILHQELIKFLETFGIPSDGSKIAILNITIEDLIKSLEKREYIVRLEEKSDTDGEVISYRIGRRTQAELGLESLEKLVQEIMGLEKEQTKSLHDDIIKSIGDSYSI
modifications: BS3-crosslinked within the holo-complex
binds: all assays above

Reference: publication doi:10.1101/2021.11.25.470006 (bioRxiv, 2021)
